Experiment [1] addresses anti-A028 antibody (IL-1beta PET). Put plainly: peptide competition assay in 6% BSA.
Experiment [2] deals with anti-A027 antibody (IL-1beta PET). The experiment is described as follows: peptide competition assay in 6% BSA.
Experiment [3] deals with anti-A034 antibody (C4 PET). The experiment is described as follows: peptide competition assay in 6% BSA.
Experiment [4] has as its target anti-A039 antibody (C9 PET). The experiment is described as follows: peptide competition assay in 6% BSA.
Experiment [5] has as its target anti-A037 antibody (C9 PET). The experiment is described as follows: peptide competition assay in 6% BSA.
The target of experiment [6] is anti-A005 antibody (ERK1 PET). Put plainly: peptide competition assay in 6% BSA.
The target in experiment [7] is anti-A016 antibody (Thyroglobulin PET). Put plainly: peptide competition assay in 6% BSA.
Experiment [8] addresses anti-A045 antibody (Fibronectin PET). The experiment is described as follows: peptide competition assay in 6% BSA.
Experiment [9] concerns the target anti-A003 antibody (TGFbeta1 PET). The experiment is described as follows: peptide competition assay in 6% BSA.
Experiment [10] addresses anti-A014 antibody (Thyroglobulin PET). Put plainly: peptide competition assay in 6% BSA.
Experiment [11] concerns the target anti-A046 antibody (Fibronectin PET). Put plainly: peptide competition assay in 6% BSA.
The target in experiment [12] is anti-A049 antibody (FactorXII PET). The experiment is described as follows: peptide competition assay in 6% BSA.
Experiment [13] concerns the target anti-A007 antibody (ERK2 PET). The experiment is described as follows: peptide competition assay in 6% BSA.
Experiment [14] addresses anti-A001 antibody (TGFbeta1 PET). Put plainly: peptide competition assay in 6% BSA.
In a further experiment the target is antibody C1. Put plainly: peptide competition ELISA: soluble peptide against immobilized target peptide for antibody C1. (An ELISA detects its analyte on a solid surface through an enzyme-linked reagent.)
Experiment [15] concerns the target anti-A047 antibody (Fibronectin PET). The experiment is described as follows: peptide competition assay in 6% BSA.
Experiment [16] addresses anti-A021 antibody (PSA PET). Put plainly: peptide competition assay in 6% BSA.
Experiment [17] concerns the target anti-A022 antibody (PSA PET). Put plainly: peptide competition assay in 6% BSA.
Experiment [18] concerns the target anti-A044 antibody (Fibronectin PET). Put plainly: peptide competition assay in 6% BSA.
The target in experiment [19] is anti-A025 antibody (IL-1beta PET). The experiment is described as follows: peptide competition assay in 6% BSA.
Experiment [20] addresses anti-A031 antibody (C3 PET). The experiment is described as follows: peptide competition assay in 6% BSA.
In experiment [21] the target is anti-A026 antibody (IL-1beta PET). Put plainly: peptide competition assay in 6% BSA.
For experiment [22], the target named is anti-A011 antibody (MEK1 PET). Put plainly: peptide competition assay in 6% BSA.
Experiment [23] has as its target anti-A024 antibody (IL-1beta PET). The experiment is described as follows: peptide competition assay in 6% BSA.
The target in experiment [24] is anti-A023 antibody (PSA PET). The experiment is described as follows: peptide competition assay in 6% BSA.
Experiment [25] deals with anti-A002 antibody (TGFbeta1 PET). Put plainly: peptide competition assay in 6% BSA.
Experiment [26] has as its target anti-A020 antibody (Troponin I PET). The experiment is described as follows: peptide competition assay in 6% BSA.
Experiment [27] addresses anti-A012 antibody (Thyroglobulin PET). Put plainly: peptide competition assay in 6% BSA.
The target in experiment [28] is anti-A013 antibody (Thyroglobulin PET). The experiment is described as follows: peptide competition assay in 6% BSA.
In experiment [29] the target is anti-A004 antibody (ERK1 PET). Put plainly: peptide competition assay in 6% BSA.
The target of experiment [30] is anti-A017 antibody (Troponin I PET). The experiment is described as follows: peptide competition assay in 6% BSA.
Experiment [31] addresses anti-A035 antibody (C4 PET). Put plainly: peptide competition assay in 6% BSA.
Experiment [32] has as its target anti-A010 antibody (MEK1 PET). The experiment is described as follows: peptide competition assay in 6% BSA.
Experiment [33] deals with anti-A043 antibody (CRP PET). The experiment is described as follows: peptide competition assay in 6% BSA.
The target in experiment [34] is anti-A008 antibody (ERK2 PET). Put plainly: peptide competition assay in 6% BSA.
The target in experiment [35] is anti-A006 antibody (pERK1 PET). The experiment is described as follows: peptide competition assay in 6% BSA.
Experiment [36] has as its target anti-A009 antibody (pERK2 PET). Put plainly: peptide competition assay in 6% BSA.
The target in experiment [37] is anti-A015 antibody (Thyroglobulin PET). The experiment is described as follows: peptide competition assay in 6% BSA.

As usually defined, the IC50 is the concentration that inhibits the measured activity by half. The low end stands for greater potency, the high end for weaker potency.

Where no end group is shown, it is not given here.

B1: A028 peptide (IL-1beta), …-NH2 (peptide)
peptide: CENMPVFLGGTK-NH2
In [1], B1 gave an IC50 of 0.5 nM.

B2: A027 peptide (IL-1beta), …-NH2 (peptide)
peptide: CLEFESAQFPNWY-NH2
Molecule B2 came in with an IC50 in [2] of 5 nM.

B3: A034 peptide (C4), …-NH2 (peptide)
peptide: CQTDQPIYNPGQR-NH2
The molecule B3 gave a half-maximal inhibitory concentration (IC50) in experiment [3] of 4 nM.

B4: A039 peptide (C9), Ac-… (peptide)
peptide: Ac-PWNVASLIYETKC
The molecule B4 showed an IC50 in experiment [4] of 0.4 nM.

B5: A037 peptide (C9), …-NH2 (peptide)
peptide: CTEHYEEQIEAFK-NH2
B5 displayed an IC50 in [5] of 0.5 nM.

B6: A005 peptide (ERK1), …-NH2 (peptide)
peptide: CVAEEPFTFDMELDD-NH2
As for B6, the IC50 in experiment [6] stood at 6 nM.

B7: A016 peptide (Thyroglobulin), …-NH2 (peptide)
peptide: CDEAGQELEGMR-NH2
On to B7, for which the IC50 in experiment [7] is 4 nM.

B8: A045 peptide (Fibronectin), …-NH2 (peptide)
peptide: CTFYQIGDSWEK-NH2
With B8, in [8], the IC50 came to 1 nM.

B9: A003 peptide (TGFbeta1), …-NH2 (peptide)
peptide: CYIWSLDTQYSK-NH2
In turn, B9 returned a concentration for half-maximal inhibition (IC50) in [9] of 8 nM.

B10: A014 peptide (Thyroglobulin), …-NH2 (peptide)
peptide: CEIYDTIFAGLD-NH2
Take B10: the half-maximal inhibitory concentration (IC50) in [10] was found to be 5 nM.

B11: A046 peptide (Fibronectin), …-NH2 (peptide)
peptide: CTTQNYDADQK-NH2
As to B11, in [11], the IC50 turned out to be 20 nM.

B12: A049 peptide (FactorXII), …-NH2 (peptide)
peptide: CVAGWGHQFEGAEEY-NH2
For the molecule B12, the 50% inhibitory concentration (IC50) in [12] is 15 nM.

B13: A007 peptide (ERK2), Ac-… (peptide)
peptide: Ac-IEVEQALAHPYLEQC
B13 registered an IC50 in [13] of 4 nM.

B14: A001 peptide (TGFbeta1), Ac-… (peptide)
peptide: Ac-ALYNQHNPGASAAPC
In [14], B14 gave an IC50 of 0.8 nM.

B15: CRP-derived 8-mer PET YEVQGEVF (peptide)
peptide: YEVQGEVF
Take B15: the IC50 in the experiment with antibody C1 is 1000 nM.

B16: A047 peptide (Fibronectin), Ac-… (peptide)
peptide: Ac-VDVIPVNLPGEHGQRC
B16 returned a concentration for half-maximal inhibition (IC50) in experiment [15] of 10 nM.

B17: A021 peptide (PSA), Ac-… (peptide)
peptide: Ac-LSEPAELTDAVKC
Regarding B17, the IC50 in [16] was 8 nM.

B18: A022 peptide (PSA), …-NH2 (peptide)
peptide: CDLPTQEPALG-NH2
The molecule B18 came in with an IC50 in experiment [17] of 8 nM.

B19: A044 peptide (Fibronectin), …-NH2 (peptide)
peptide: CHEGGQSYK-NH2
Regarding B19, the IC50 in [18] turned out to be 8 nM.

B20: A025 peptide (IL-1beta), Ac-… (peptide)
peptide: Ac-SLVMSGPYELKC
As to B20, the IC50 in experiment [19] was 5 nM.

B21: A031 peptide (C3), …-NH2 (peptide)
peptide: CHYLDETEQWEK-NH2
Consider B21, for which the half-inhibitory concentration (IC50) in experiment [20] amounted to 5 nM.

B22: A026 peptide (IL-1beta), Ac-… (peptide)
peptide: Ac-PTLQLESVDPKC
The molecule B22 displayed an IC50 in experiment [21] of 8 nM.

B23: A011 peptide (MEK1), …-NH2 (peptide)
peptide: CGTSSAETNLEALQK-NH2
B23 displayed an IC50 in experiment [22] of 23 nM.

B24: A024 peptide (IL-1beta), …-NH2 (peptide)
peptide: CNEDDLFFEADGPK-NH2
In [23], B24 registered an IC50 of 0.5 nM.

B25: A023 peptide (PSA), …-NH2 (peptide)
peptide: CGSIEPEEFLTPK-NH2
In turn, B25 displayed an IC50 in experiment [24] of 8 nM.

B26: A002 peptide (TGFbeta1), Ac-… (peptide)
peptide: Ac-PQALEPLPIVYYVGRC
B26 displayed a 50% inhibitory concentration (IC50) in experiment [25] of 3 nM.

B27: A020 peptide (Troponin I), Ac-… (peptide)
peptide: Ac-NIDALSGMEGRC
In the case of B27, the IC50 in [26] was 4 nM.

B28: A012 peptide (Thyroglobulin), Ac-… (peptide)
peptide: Ac-GGQSAESEEEELC
On to B28, for which, in [27], the IC50 is 10 nM.

B29: A013 peptide (Thyroglobulin), Ac-… (peptide)
peptide: Ac-ELAETGLELLC
Consider B29, for which, in experiment [28], the concentration for half-maximal inhibition (IC50) turned out to be 8 nM.

B30: A004 peptide (ERK1), Ac-… (peptide)
peptide: Ac-ITVEEALAHPYLEQC
For the molecule B30, the IC50 in [29] was determined as 25 nM.

B31: A017 peptide (Troponin I), Ac-… (peptide)
peptide: Ac-AYATEPHAKC
In turn, B31 returned an IC50 in experiment [30] of 10 nM.

B32: A035 peptide (C4), …-NH2 (peptide)
peptide: CEANEDYEDYEYDE-NH2
On to B32, for which the half-maximal inhibitory concentration (IC50) in experiment [31] came out at 4 nM.

B33: A010 peptide (MEK1), Ac-… (peptide)
peptide: Ac-PTPIQLNPAPDGC
As for B33, the half-maximal inhibitory concentration (IC50) in [32] worked out at 36 nM.

B34: A043 peptide (CRP), …-NH2 (peptide)
peptide: CYEVQGEVFTK-NH2
Regarding B34, in [33], the IC50 is 4 nM.

B35: A008 peptide (ERK2), …-NH2 (peptide)
peptide: CDPSDEPIAEAPFK-NH2
Take B35: the IC50 in experiment [34] turned out to be 6 nM.

B36: A006 peptide (ERK1), Ac-… (peptide)
peptide: Ac-IADPEHDHTGC
The molecule B36 showed an IC50 in experiment [35] of 6 nM.

B37: A009 peptide (ERK2), Ac-… (peptide)
peptide: Ac-VADPDHDHTGC
B37 registered a half-inhibitory concentration (IC50) in [36] of 31 nM.

B38: A015 peptide (Thyroglobulin), …-NH2 (peptide)
peptide: CDFSTPLAHFDLR-NH2
Regarding B38, in [37], the half-inhibitory concentration (IC50) was found to be 4 nM.

(Values after patent US20060014212A1.)
